Experimental data reported in patent US20120121613.

Experiments:
[1] = biological target: PEG-linker-FVIII (FVIII mutein conjugated to PEG through a thrombin-cleavable linker, linker not named in Example 2) (UniProt P00451)
[2] = biological target: unmodified FVIII mutein (UniProt P00451)
[3] = biological target: PEG-FVIII (FVIII mutein directly, non-cleavably conjugated to PEG) (UniProt P00451)

thrombin
SDS-PAGE after thrombin digestion (30 min at 37° C.) [1]: the PEG-conjugated light chain almost completely disappeared in SDS-PAGE analysis, indicating a complete removal of PEG | SDS-PAGE after thrombin digestion (30 min at 37° C.) [2]: After thrombin digestion, the FVIII light and heavy chains disappear and are replaced by cleavage products. | SDS-PAGE after thrombin digestion [3]: there was no removal of PEG-conjugated light chain (lane 4)
